From US7893032B2, “NgR variants and compositions thereof for suppressing axonal growth inhibition” (Yale University, priority 2005, dated 2011)

Legend:
[1] = tested on: E7 chick DRG growth cones; experiment: Nogo-induced growth cone collapse in E7 chick DRG neurons expressing NgR proteins; type: cell-based; conditions: for growth cone collapse in the presence of Nogo: E7 DRG cells expressing the protein from a viral vector, 100 μM Nogo-66 (FIG. 2 legend)
Protocol: (§1) FIG. 2 quantifies collapsed E7 (A) or E13 (B) chick DRG growth cones expressing the indicated proteins and exposed (dark) or not exposed (light) to 100 μM Nogo-66.
The signaling ability of the NgR mutant proteins was directly assessed by expressing the proteins in chick DRG neurons and monitoring Nogo-induced growth cone collapse. […] (FIG. 2A).

[2] = tested on: E13 chick DRG growth cones; experiment: Nogo-induced growth cone collapse in E13 chick DRG neurons overexpressing NgR proteins; type: cell-based; conditions: E13 DRG cells with endogenous NgR; 100 μM Nogo-66 (FIG. 2 legend)
Protocol: as §1
At E13, DRG neurons express NgR and respond to Nogo with growth cone collapse that is not altered by overexpression of wild-type NgR. (FIG. 2B). […] (FIG. 2B). Thus, NgR-R377Q is a dominant negative protein.

B1: wild-type NgR: Wild-type full-length human NgR protein (protein, listed as Homo sapiens)
chain: MKRASAGGSRLLAWVLWLQAWQVAAPCPGACVCYNEPKVTTSCPQQGLQAVPVGIPAASQRIFLHGNRISHVPAASFRACRNLTILWLHSNVLARIDAAAFTGLALLEQLDLSDNAQLRSVDPATFHGLGRLHTLHLDRCGLQELGPGLFRGLAALQYLYLQDNALQALPDDTFRDLGNLTHLFLHGNRISSVPERAFRGLHSLDRLLLHQNRVAHVHPHAFRDLGRLMTLYLFANNLSALPTEALAPLRALQYLRLNDNPWVCDCRARPLWAWLQKFRGSSSEVPCSLPQRLAGRDLKRLAANDLQGCAVATGPYHPIWTGRATDEEPLGLPKCCQPDAADKASVLEPGRPASAGNALKGRVPPGDSPPGNGSGPRHINDSPFGTLPGSAEPPLTAVRPEGSEPPGFPTSGPRRRPGCSRKNRTRSHCRLGQAGSGGGGTGDSEGSGALPSLTCSLTPLGLALVLWTVLGPC
How did the “growth cone collapse in the presence of Nogo” value [1] turn out when B1 was run?
Its value is “exhibited growth cone collapse in the presence of Nogo”.

And the “effect of overexpression on extent of Nogo-induced growth cone collapse” value [2]?
The value was “not altered”.

B2: NgR-R377Q: Full length human NgR R377Q mutant protein (protein)
chain: MKRASAGGSRLLAWVLWLQAWQVAAPCPGACVCYNEPKVTTSCPQQGLQAVPVGIPAASQRIFLHGNRISHVPAASFRACRNLTILWLHSNVLARIDAAAFTGLALLEQLDLSDNAQLRSVDPATFHGLGRLHTLHLDRCGLQELGPGLFRGLAALQYLYLQDNALQALPDDTFRDLGNLTHLFLHGNRISSVPERAFRGLHSLDRLLLHQNRVAHVHPHAFRDLGRLMTLYLFANNLSALPTEALAPLRALQYLRLNDNPWVCDCRARPLWAWLQKFRGSSSEVPCSLPQRLAGRDLKRLAANDLQGCAVATGPYHPIWTGRATDEEPLGLPKCCQPDAADKASVLEPGRPASAGNALKGRVPPGDSPPGNGSGPQHINDSPFGTLPGSAEPPLTAVRPEGSEPPGFPTSGPRRRPGCSRKNRTRSHCRLGQAGSGGGGTGDSEGSGALPSLTCSLTPLGLALVLWTVLGPC
modifications: Human NgR R377Q mutant
notes: Full length human NgR R377Q mutant protein
For B2, which “growth cone collapse in the presence of Nogo” value [1] is on record?
The value was “did not”.

What about the “signaling ability (signal transduction)” value ([1]; E7 DRG cells expressing the protein, Nogo-induced growth cone collapse as readout) of the same molecule?
Its value is “inactive in signal transduction”.

And the “effect of overexpression on extent of Nogo-induced growth cone collapse” value [2]?
The value was “significantly decreased”.
